# From ChEMBL document CHEMBL5046279, “Discovery of a Partial Glucokinase Activator Clinical Candidate: Diethyl ((3-(3-((5-(Azetidine-1-carbonyl)pyrazin-2-yl)oxy)-5-isopropoxybenzamido)-1H-pyrazol-1-yl)methyl)phosphonate (BMS-820132)” (J Med Chem, 2022)
# B1: Hexokinase-4 (Homo sapiens), P35557 (protein)
# chain: MLDDRARMEAAKKEKVEQILAEFQLQEEDLKKVMRRMQKEMDRGLRLETHEEASVKMLPTYVRSTPEGSEVGDFLSLDLGGTNFRVMLVKVGEGEEGQWSVKTKHQMYSIPEDAMTGTAEMLFDYISECISDFLDKHQMKHKKLPLGFTFSFPVRHEDIDKGILLNWTKGFKASGAEGNNVVGLLRDAIKRRGDFEMDVVAMVNDTVATMISCYYEDHQCEVGMIVGTGCNACYMEEMQNVELVEGDEGRMCVNTEWGAFGDSGELDEFLLEYDRLVDESSANPGQQLYEKLIGGKYMGELVRLVLLRLVDENLLFHGEASEQLRTRGAFETRFVSQVESDTGDRKQIYNILSTLGLRPSTTDCDIVRRACESVSTRAAHMCSAGLAGVINRMRESRSEDVMRITVGVDGSVYKLHPSFKERFHASVRRLTPSCEITFIESEEGSGRGAALVSAVACKKACMLGQ
# Substrate: CCOP(=O)(Cc1csc(NC(=O)c2cc(Oc3ccc(S(C)(=O)=O)cc3)cc(O[C@@H](C)COC)c2)n1)OCC
# Conditions: Homo sapiens; filed as activator
# Description: Activation of human glucokinase assessed as decrease in glucose Km
protein,measurement,value
B1,Km,2400 µM
